{
  "source": "patent US10434074B2",
  "about": "“Peptide and small molecule agonists of EPHA and uses thereof” (CASE WESTERN RESERVE UNIVERSITY, priority 2004, dated 2019)",
  "molecules": {"B1": {"name": "ephrin-A1-Fc: ephrin-A1 dimerized by fusion to the heavy chain of human IgG1 (protein)", "chain": "DRHTVFWNSSNPKFRNEDYTIHVQLNDYVDIICPHYEDHSVADAAMEQYILYLVEHEEYQLCQPQSKDQVRWQCNRPSAKHGPEKLSEKFQRFTPFTLGKEFKEGHSYYYISKPIHQHEDRCLRLKVTVSGKITHSPQAHDNPQEKRLAADDPEVRVLHSIGHS", "modifications": "left off: a dimerising Fc or GST", "notes": "ephrin-A1 dimerized by fusion to the heavy chain of human IgG1"}},
  "key": {"[1]": {"system": "DU-145 cells", "assay": "Scattering onto immobilized ligand (SOIL) assay", "format": "cell-based, human", "settings": "48 hours", "experimental": "FIGS. 2(A-E) illustrate EphA activation inhibited DU-145 cell migration. (A) Expression of c-Met is elevated in cell lines derived from more malignant prostate cancer. Total cellular proteins were immunoblotted with anti-human c-Met. An anti-tubulin blot was used as a control for protein loading. (B) In a modified Boyden chamber assay, DU-145 cells were placed in the upper chamber and allowed to migrate to the lower chamber containing indicated reagents. After 8 hours, cells were stained with crystal violet and cells remaining in the upper chamber were removed. Top panel: Cells migrated to the undersides of membrane were counted; six high power fields were counted. Results represent means±S.D. Representative fields were shown in the lower panel. (C) Ephrin-A1-Fc inhibits DU-145 cell migration when HGF/SF was uniformly presented in both sides of membranes. The experiment was carried out as described in A. (D) Inhibition of cell scattering by immobilized ephrin-A1 in a SOIL assay (Method). Ephrin-A1-Fc or control Fc was immobilized on 6-well culture dishes. Freshly confluent DU-145 cells on cover slips were transferred to the coated surfaces. Cells were stimulated with HGF/SF to induce migration off the cover slips to immobilized Fc or ephrin-A1-Fc. […] The wound healing was recorded prior to and 12 hours after the addition of Fc, ephrin-A1-Fc (1 μg/ml) and/or HGF/SF (20 ng/ml). […]"}, "[2]": {"system": "integrin-mediated cell adhesion", "assay": "Integrin-mediated cell adhesion to fibronectin", "format": "cell-based"}, "[3]": {"target": "T1, EphA2 (Mus musculus, UniProt Q03145)", "T1 construct": "endogenous in cells; host or cells: primary keratinocytes from newborn (P1) mouse epidermis", "T1 sequence (Q03145 26-977)": "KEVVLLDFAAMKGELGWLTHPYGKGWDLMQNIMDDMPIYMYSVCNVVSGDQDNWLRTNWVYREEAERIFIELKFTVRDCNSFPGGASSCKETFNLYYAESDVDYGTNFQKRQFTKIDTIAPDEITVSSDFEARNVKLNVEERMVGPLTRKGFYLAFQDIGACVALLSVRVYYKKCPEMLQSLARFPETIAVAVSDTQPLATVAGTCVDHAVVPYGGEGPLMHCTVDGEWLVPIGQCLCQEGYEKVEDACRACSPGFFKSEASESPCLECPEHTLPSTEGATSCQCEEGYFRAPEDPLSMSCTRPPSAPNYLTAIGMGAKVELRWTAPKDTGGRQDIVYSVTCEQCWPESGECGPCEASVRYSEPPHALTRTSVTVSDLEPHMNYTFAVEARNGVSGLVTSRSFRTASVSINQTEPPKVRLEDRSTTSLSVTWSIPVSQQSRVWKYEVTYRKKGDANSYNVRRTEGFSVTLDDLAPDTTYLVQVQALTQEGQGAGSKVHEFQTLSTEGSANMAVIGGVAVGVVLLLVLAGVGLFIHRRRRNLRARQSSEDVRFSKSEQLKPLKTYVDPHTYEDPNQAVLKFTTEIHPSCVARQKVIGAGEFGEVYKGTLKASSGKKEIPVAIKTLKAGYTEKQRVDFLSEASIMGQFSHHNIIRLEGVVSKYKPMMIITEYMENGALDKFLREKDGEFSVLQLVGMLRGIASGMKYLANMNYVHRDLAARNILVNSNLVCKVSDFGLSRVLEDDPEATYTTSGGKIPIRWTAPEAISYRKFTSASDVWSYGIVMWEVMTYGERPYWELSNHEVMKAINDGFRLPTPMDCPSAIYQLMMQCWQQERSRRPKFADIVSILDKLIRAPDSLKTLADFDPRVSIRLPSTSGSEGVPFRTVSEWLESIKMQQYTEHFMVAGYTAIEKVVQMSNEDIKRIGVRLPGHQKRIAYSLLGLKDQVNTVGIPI", "assay": "EphA activation and ERK1/2 in primary keratinocytes", "format": "cell-based", "experimental": "(§1) FIGS. 43(A-C) illustrate EphA2 kinase is required for ephrin-A1-induced inhibition of ERK1/2 MAP kinase and growth suppression in primary keratinocytes. A) EphA kinase activation by ephrin-A1 in EphA2^+/+ and EphA2^+/− but not EphA2^−/− keratinocytes. Keratinocytes were isolated from newborn (P1) mice and cultured on matrigel-coated culture plates. They were stimulated with 1.0 μg/ml of ephrin-A1-Fc for 10 min. The unstimulated cells were used as control. EphA receptors including EphA2 were precipitated from the cell lysates using ephrin-A1-Fc, and were subjected to immunoblot analysis with rabbit polyclonal anti-phospho-EphA/B antibody. Membrane was stripped and blotted again for total EphA2. B) Ephrin-A1 stimulation leads to inactivation of ERK1/2 MAPK in EphA2^+/+ and EphA2^+/− but not EphA2^−/− keratinocytes. Total cell lysates were analyzed by immunoblot with the indicated antibodies. The band densities from p-ERK blot were normalized to the corresponding total ERK1 blot. The ratios of p-ERK between ephrin-A1-treated and untreated were shown in the lower panel. C). Ephrin-A1 stimulation inhibits clonal growth of EphA2^+/+ and EphA2^+/− but not EphA2^−/− keratinocytes. Primary keratinocytes were plated on 6-well plates coated with matrigel at 5,000 cells/well, and allowed to grow for 12 days in the presence of Fc (0.5 μg/ml) or ephrin-A1-Fc (1.0 μg/ml).\n(§2) To determine cellular mechanisms underlying the increased susceptibility to skin tumorigenesis, primary keratinocytes were isolated and cultured from epidermis of neonatal (P1) mice. They were stimulated with ephrin-A1 fused to the heavy chain of human IgG1 (ephrin-A1-Fc). EphA kinases including EphA2 were precipitated with excess ephrin-A1-Fc, and blotted with antibody raised against phosphorylated dityrosine peptide that is highly conserved in the juxtamembrane region of all Eph kinases. Phosphorylation of this region has been correlated with Eph receptor activation.\n(§3) Primary keratinocytes were isolated from neonatal mouse skin as described previously (Caldelari et al., 2000). Briefly, the entire P1 mouse skin was dissected and incubated with 5 U/ml dispase II (Boehringer Mannheim) overnight at 4° C. Epidermal layer was separated from dermal layer using forceps, minced and digested with 0.25% trypsin/0.05 mMEDTA. After neutralizing trypsin by washing with serum-containing medium, cells were filtered through sterile gauze pads, spun down and resuspended in serum-free keratinocytes culture medium (Gibco) containing pituitary extract, 5 ng/ml EGF, 100 U/ml penicillin, 0.1 mg/ml streptomycin, and 0.25 μg/ml amphotericin, and plated on 6-well plates precoated with 50 μg/ml matrigel. Cell stimulation with ephrin-A1-Fc, immunoprecipitation, and immunoblot were carried as described preciously (Miao et al., 2003; Miao et al., 2005)."}, "[4]": {"system": "EphA2", "assay": "EphA activation and ERK1/2 in primary keratinocytes", "format": "cell-based, mouse", "experimental": "as §1, §2, §3"}},
  "data": [
    {"molecule": "B1", "values": [
      {"measurement": "HGF/SF-induced cell migration off cover slips", "setting": "[1]", "value": "significantly reduced"},
      {"measurement": "basal cell migration off cover slips", "setting": "[1]", "value": "reduced basal levels of cell migration off cover slips"},
      {"measurement": "effect of ligand clustering on inhibition of cell adhesion to fibronectin", "setting": "[2]", "value": "did not increase the inhibitory effects"},
      {"measurement": "ERK1/2 activities", "setting": "[3]; heterozygous keratinocytes", "value": "intermediate response"},
      {"measurement": "EphA2 activation", "setting": "[3]; wild type and heterozygous keratinocytes", "value": "readily activated"},
      {"measurement": "ERK1/2 activities", "setting": "[3]; wild type keratinocytes", "value": "significantly attenuated"},
      {"measurement": "p-EphA/B signal", "setting": "[4]; EphA2-null keratinocytes", "value": "undetectable"},
      {"measurement": "ERK1/2 activities", "setting": "[4]; EphA2 homozygous deletion", "value": "completely abolished the inhibitory effects"}
    ]}
  ]
}
